According to US20230192820A1 (published 2023):

B1: MAb362 IgA1 (monomeric) (antibody, V domains shown)
VH: QVQLVESGGGVVQPGRSLRLSCAASGFSFSSYGMHWVRQAPGKGLEWVAVIWYDGSDKYYADSVKGRFTISRDNSKNTLYLQLNSLRAEDTAIYYCARERYFDWIFDFWGQGTLVTVSS
VL: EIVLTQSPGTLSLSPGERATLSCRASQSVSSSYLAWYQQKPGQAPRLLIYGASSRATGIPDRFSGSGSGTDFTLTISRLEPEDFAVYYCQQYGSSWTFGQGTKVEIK
B2: MAb362 IgG1 (antibody, V domains shown)
VH: B1 VH
VL: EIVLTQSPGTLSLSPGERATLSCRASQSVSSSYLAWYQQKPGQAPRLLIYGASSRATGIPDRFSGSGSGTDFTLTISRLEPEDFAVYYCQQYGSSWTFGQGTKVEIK

Biological target: stabilized trimer of the full ectodomain of SARS-CoV-2 spike protein (residues 1-1208, NIAID VRC7471) (SARS-CoV-2, UniProt P0DTC2 14-1208)

Row | Binder | Kd [nM]
1 | B1 | 0.17
2 | B2 | 27
